Target: GST-HC-Pro^K (HC-Pro of turnip mosaic virus, FRNK motif mutated to FKNK) (turnip mosaic virus (TuMV))
Assay: pull-down; 2 μg bait (GST-HC-Pro^R or GST-HC-Pro^K) and 2 μg prey (his-AtHEN1) in 50 mM Tris-HCl pH 7.5, 100 mM NaCl, 0.2% glycerol, 0.6% Triton X-100, 0.5 mM β-mercaptoethanol; 25 °C, 2 h; Glutathione Sepharose 4B; blot with α-His or α-GST

B1: his-AtHEN1 (recombinant full-length Arabidopsis HEN1) (enzyme)
chain: MAGGGKHTPTPKAIIHQKFGAKASYTVEEVHDSSQSGCLGLAIPQKGPCLYRCHLQLPEFSVVSNVFKKKKDSEQSAAELALDKLGIRPQNDDLTVDEARDEIVGRIKYIFSDEFLSAEHPLGAHLRAALRRDGERCGSVPVSVIATVDAKINSRCKIINPSVESDPFLAISYVMKAAAKLADYIVASPHGLRRKNAYPSEIVEALATHVSDSLHSREVAAVYIPCIDEEVVELDTLYISSNRHYLDSIAERLGLKDGNQVMISRMFGKASCGSECRLYSEIPKKYLDNSSDASGTSNEDSSHIVKSRNARASYICGQDIHGDAILASVGYRWKSDDLDYDDVTVNSFYRICCGMSPNGIYKISRQAVIAAQLPFAFTTKSNWRGPLPREILGLFCHQHRLAEPILSSSTAPVKSLSDIFRSHKKLKVSGVDDANENLSRQKEDTPGLGHGFRCEVKIFTKSQDLVLECSPRKFYEKENDAIQNASLKALLWFSKFFADLDVDGEQSCDTDDDQDTKSSSPNVFAAPPILQKEHSSESKNTNVLSAEKRVQSITNGSVVSICYSLSLAVDPEYSSDGESPREDNESNEEMESEYSANCESSVELIESNEEIEFEVGTGSMNPHIESEVTQMTVGEYASFRMTPPDAAEALILAVGSDTVRIRSLLSERPCLNYNILLLGVKGPSEERMEAAFFKPPLSKQRVEYALKHIRESSASTLVDFGCGSGSLLDSLLDYPTSLQTIIGVDISPKGLARAAKMLHVKLNKEACNVKSATLYDGSILEFDSRLHDVDIGTCLEVIEHMEEDQACEFGEKVLSLFHPKLLIVSTPNYEFNTILQRSTPETQEENNSEPQLPKFRNHDHKFEWTREQFNQWASKLGKRHNYSVEFSGVGGSGEVEPGFASQIAIFRREASSVENVAESSMQPYKVIWEWKKEDVEKKKTDL
fold pull-down signal: 0.2 to 0.3 fold

Reference: PMC8473176
